Data set [1] deals with 51Cr-labeled recipient LB. Kind of data set: Inhibition of LB-directed cytotoxicity by granule exocytosis pathway blockers. The conditions noted are these: CMA 1, 10, 100 nM/L for 2 h or SrCl2 5, 25, 50 mM/L for 18 h; one mean given for either reagent; FIG. 5 E:T 5:1. The text has this: Cytolytic activity of a CTL refers to the secretion of the contents of secretory granules into the immediate vicinity of the target cell to which it attaches. The granules contain perforins, various lysosomal enzymes, and calcium binding proteins that destroy the target cell.

Data set [2] relates to JY (A2+) and 221 (A2-) 51Cr-labeled target cells.
Data set [3] has the same test system. Kind of data set: 51Cr-release assay of HLA-A2 specific CTL activity induced in purified CD8+ TL by dendritic cells.
Data set [4] deals with class I molecules, TAP transporters, PA28, immunoproteasomes in monocytes/DC. The data set is described as follows: Expression of class I molecules, TAP transporters, PA28 and immunoproteasomes by flow cytometry and immunoprecipitation. The following applies: treatment of immature DC. The data set is classed as cell-based, human. From the text:
To determine if the differences observed between DC treated with LPS, TNF-α, or CD40L in inducing CTL activity of CD8^+ T cells were due to differences in antigen processing and presentation capacity of monocytes, immature DC, and mature DC, the expression levels of class I molecules, TAP transporters, PA28 (an immunoproteasome regulator), and immunoproteasomes were examined by flow cytometry (FACScan, Benton Dickenson, Milano, Italy) and immunoprecipitation with appropriate antibodies. […] The level of expression of class I molecules was further increased by two fold upon treatment with LPS, CD40L, or TNF-α.

`C/C=C/[C@H]1O[C@@](O)([C@@H](C)[C@H](O)[C@H](C)[C@H]2OC(=O)/C(OC)=C/C(C)=C/[C@@H](C)[C@@H](O)[C@@H](CC)[C@@H](O)[C@H](C)C/C(C)=C/C=C/[C@@H]2OC)C[C@@H](O[C@H]2C[C@@H](O)[C@H](OC(N)=O)[C@@H](C)O2)[C@@H]1C` [CMA, concanamycin A]: in data set [1], the “mean inhibition of LB-directed cytotoxicity” value was found to be 87%.
On to “IL-4: lymphokine added to the CTL induction culture”, for which the “effect of addition on cytotoxic activity” value in data set [2] was “no effect”.
In the case of “IL-6: lymphokine added to the CTL induction culture”, the “effect of addition on cytotoxic activity” value in data set [2] is “no effect”.
Consider IL-7: cytokine interleukin-7, for which, in data set [2], the “effect on cytotoxic activity induced by immature DC” value was “no effect” and the “enhancement of cytotoxic activity” value was “approximately three fold”.
Turning to IL-12: cytokine interleukin-12, the “substitution for CD40L in inducing cytotoxic activity” value in data set [2] is reported as “two of the four”.
As for lipopolysaccharide [LPS], the “induction of cytotoxic activity from purified CD8+ T cells by treated DC” value in data set [3] (DC treated with LPS 20 ng/ml, TNF-α 20 ng/ml (40 h) or irradiated CD40L-transfected cells, FIG. 1A) was “only CD40L treated DC were capable of inducing cytotoxic activity”. The “further increase of expression of class I molecules” value (“further increase” for short) in data set [4] is “two fold”.
Turning to tumor necrosis factor-α [TNF-α], in data set [4], the “further increase” value is on record as “two fold”.

B1: CD40L: CD40 Ligand, supplied as irradiated CD40L-transfected cells added to immature DC; dendritic cell maturation factor (protein, UniProt P29965 1-261, looked up)
chain: MIETYNQTSPRSAATGLPISMKIFMYLLTVFLITQMIGSALFAVYLHRRLDKIEDERNLHEDFVFMKTIQRCNTGERSLSLLNCEEIKSQFEGFVKDIMLNKEETKKENSFEMQKGDQNPQIAAHVISEASSKTTSVLQWAEKGYYTMSNNLVTLENGKQLTVKRQGLYYIYAQVTFCSNREASSQAPFIASLCLKSPGRFERILLRAANTHSSAKPCGQQSIHLGGVFELQPGASVFVNVTDPSQVSHGTGFTSFGLLKL
modifications: full-length expressed on irradiated transfected cells
notes: CD40 Ligand, supplied as irradiated CD40L-transfected cells added to immature DC; dendritic cell maturation factor
On to B1, for which, in data set [3] (CD40L-treated DC, four CD8+ populations tested), the “CD8+ cell populations in which CTL activity was detected” value is “three of the four”. Besides, the “further increase” value in data set [4] is “two fold”.
